This note sets out measurements from patent US10677782B2, “Methods of determining interferon having direct inhibitory effects on tumors and uses thereof” (SUPERLAB FAR EAST LIMITED, priority 2013, dated 2020).

One data set relates to LRP6 mRNA in H460 cells. Description: qPCR of Wnt-related receptor LRP6. In kind it is cell-based, human. To be noted: 10 μg/ml, 24 hr; vs Mock. The text has this:
Total mRNA was isolated using TRIZOL Reagent (Invitrogen, Carlsbad, Calif.) according to the manufacturer's instructions. Complementary DNA (cDNA) was synthesized using a RT-PCR Kit (Cat #: FSQ-101, TOYOBO, Japan) according to the manufacturer's instructions and then subjected to qPCR with a SYBR Green PCR kit (Cat #: QPK-201, TOYOBO, Japan). The primers of the four Wnt pathway target genes were as follows: Axin2 sense primer: 5′-[…]-3′ (SEQ ID NO:8) and antisense primer: 5′-[…]-3′ (SEQ ID NO: 9); CD24 sense primer: 5′-[…]-3′ (SEQ ID NO: 10) andantisense primer: 5′-[…]-3′ (SEQ ID NO: 11); Survivin sense primer: 5′-[…]-3′ (SEQ ID NO: 12) and antisense primer: 5′-[…]-3′ (SEQ ID NO: 13) and ID2 sense primer: 5′-[…]-3′ (SEQ ID NO: 14) and antisense primer: 5′-[…]-3′ (SEQ ID NO: 15).
The amplification protocol consisted of incubations at 95° C. for 1 minute, 40 cycles (95° C. for 15 seconds, 60° C. for 15 seconds, 72° C. for 30 seconds). Incorporation of the SYBR Green dye into PCR products was monitored in real time with a Bio-Rad Detection System and subsequently analyzed using Bio-Rad CFX manager 2.1 software. The samples were pooled for each condition and run in duplicate. […]
The regulation of LRP6/FZD6 by rSIFN-co was investigated. […] Results were recorded as relative mRNA level of either LRP6 or FZD6 relative to GAPDH.
In general terms: Real-time PCR tracks product formation cycle by cycle.

The nature of data set [1]: Tolerability and body weight of tumor-bearing mice, Example 3. In kind it is in vivo. To be noted: 0.05-0.15 mg/mouse i.t. every other day, 28 days. How it is done: Animals were assigned to treatment groups randomly. Initially, all animals were placed in one large animal cage. For assignment to the study, they were later separately housed, with 6 animals per cage per treatment group. Groups 1 and 2 are Control groups in which the animals were each administered the vehicle every other day after the first treatment. […] The animals in Groups 4, 5 and 6 were each given rSIFN-co every other day after the first treatment at 0.15 mg/mouse (Group 4) or 0.10 mg/mouse (Group 5) or 0.05 mg/mouse (Group 6), respectively. Tumor growth was monitored by measuring the length and width of each tumor twice a week during the course of the study. Each animal was also weighed twice a week during the course of the study.
This study was conducted as in Example 1, except as specifically indicated otherwise. Human colon cancer xenografts were first established and prepared in a similar manner as in Example 1, by inoculating 5×10^6 HT-29 cells subcutaneously into nude mice and passaging the well-grown xenografts twice in nude mice. Then, 1.5 mm^3 fragments were prepared for s.c. implantation into the test animals. The body weight of the animals averaged 20±2 g at dose initiation In contrast to Example 1, the animals used in this study were all female. […]

Another data set deals with different cancer cells. The data set is described as follows: Cell viability, Am-Blue assay, 48 hr, across the cancer cell lines tested. Type of data set: cell-based, human. Particulars: 100 mcg/ml, any of the cancer cell lines. The protocol:
Cell culture and reagents human lung cancer cell lines (A549, H1299, H460, Calu-1), human liver cancer cell lines (SMMC-7721, Huh-7, CL-1), human cervical carcinoma cell line (Hela), human breast cancer cell line (MDA-MB-231), human pancreatic cancer cell line (PANC-1) and human colon cancer cell lines (SW620, HT29, SW480) were purchased from the Shanghai Cell Collection (Shanghai, China). The above cell lines were cultured in 5% CO2 at 37° C. in corresponding complete growth medium formulated by the Shanghai Cell Collection, with 10% heat-inactivated fetal bovine serum (Biochrom, Germany), supplemented with 4 mM glutamine, 50 U/ml penicillin and […] streptomycin.
About 5×10^3 cells in 100 μl complete medium per well were plated in 96-well plates, incubated overnight, and then treated with IFN α-2b or rSIFN-co at concentrations of 100 μg/ml, 50 μg/ml, 25 μg/ml, 12.5 μg/ml, 6.25 μg/ml, 3.13 μg/ml, 1.56 μg/ml, 0.78 μg/ml, 0.39 μg/ml, and 0.20 μg/ml, respectively, for about 48 hr, at which time the cells were harvested for analysis. The cell viability rate was evaluated by SunBio Am-Blue assay kit (Cat #: SBAB8025, Shanghai SBO Medical Biotechnology Co., Ltd, Shanghai, China). […] Results are shown in FIG. 5, in which viability of the tumor cells was expressed as a percentage relative to control cells that were not treated. […]

B1: rSIFN-co: Recombinant super-compound interferon; amino acid sequence SEQ ID NO: 1 (same as interferon alfacon-1), encoded by SEQ ID NO: 2, novel tertiary structure (protein)
chain: MCDLPQTHSLGNRRALILLAQMRRISPFSCLKDRHDFGFPQEEFDGNQFQKAQAISVLHEMIQQTFNLFSTKDSSAAWDESLLEKFYTELYQQLNDLEACVIQEVGVEETPLMNVDSILAVKKYFQRITLYLTEKKYSPCAWEVVRAEIMRSFSLSTNLQERLRRKE
modifications: Amino acid sequence of recombinant interferon
B1: in the data set with LRP6 mRNA in H460 cells, the “relative expression of the LRP6 mRNA” value is “down-regulated to various extents”. Besides, in data set [1], the “tolerability: signs of drug toxicity and changes in weight” value is “no signs of drug toxicity and minimal changes in weight”. For the same molecule, the cell viability result with different cancer cells is given as “cell viability could not be detected”.
